In the experiment the target is sub-unit alpha of human chorionic gonadotropin (human) (UniProt P01215). Briefly: SPR (BIACORE), alpha hCG fixed to the sensor. In general terms: SPR reads the build-up and loss of mass on a sensor chip optically.

B1: antibody scFv5E8 specific for sub-unit alpha of human chorionic gonadotropin (scFv)
scFv: QVQLQQSGAELMKPGASVKLTASCSGFSIKDTYMHWVKQRPEQGLEWIGRIDPANGNTKYDPKFQGKATITADTSSNTAYLQLSSLTSEDTAVYYCHRFEFAMDYWGQGTTVTVSSGGGGSGGGGSGGGGSDIQGTQSPASLVVSLGQRATISCRASKSVSASGYSYVNWYQQKPGQPPKLLIYLASNLESGVPARFSGSGSGTDFTLNIHPVEEEDAATYYCQHSRELPLTFGAGTKLEISMEELMIEGR
In turn, B1 gave a Kdiss, fold against MAb 5E8 of 300 times.

The record behind these values is patent US5674712.
